Reference: patent US20250011379A1

Target: human C4b (human), P0C0L5
Assay: cell-based or functional assay

human C4b (human), P0C0L5, sequence (P0C0L5 20-1744): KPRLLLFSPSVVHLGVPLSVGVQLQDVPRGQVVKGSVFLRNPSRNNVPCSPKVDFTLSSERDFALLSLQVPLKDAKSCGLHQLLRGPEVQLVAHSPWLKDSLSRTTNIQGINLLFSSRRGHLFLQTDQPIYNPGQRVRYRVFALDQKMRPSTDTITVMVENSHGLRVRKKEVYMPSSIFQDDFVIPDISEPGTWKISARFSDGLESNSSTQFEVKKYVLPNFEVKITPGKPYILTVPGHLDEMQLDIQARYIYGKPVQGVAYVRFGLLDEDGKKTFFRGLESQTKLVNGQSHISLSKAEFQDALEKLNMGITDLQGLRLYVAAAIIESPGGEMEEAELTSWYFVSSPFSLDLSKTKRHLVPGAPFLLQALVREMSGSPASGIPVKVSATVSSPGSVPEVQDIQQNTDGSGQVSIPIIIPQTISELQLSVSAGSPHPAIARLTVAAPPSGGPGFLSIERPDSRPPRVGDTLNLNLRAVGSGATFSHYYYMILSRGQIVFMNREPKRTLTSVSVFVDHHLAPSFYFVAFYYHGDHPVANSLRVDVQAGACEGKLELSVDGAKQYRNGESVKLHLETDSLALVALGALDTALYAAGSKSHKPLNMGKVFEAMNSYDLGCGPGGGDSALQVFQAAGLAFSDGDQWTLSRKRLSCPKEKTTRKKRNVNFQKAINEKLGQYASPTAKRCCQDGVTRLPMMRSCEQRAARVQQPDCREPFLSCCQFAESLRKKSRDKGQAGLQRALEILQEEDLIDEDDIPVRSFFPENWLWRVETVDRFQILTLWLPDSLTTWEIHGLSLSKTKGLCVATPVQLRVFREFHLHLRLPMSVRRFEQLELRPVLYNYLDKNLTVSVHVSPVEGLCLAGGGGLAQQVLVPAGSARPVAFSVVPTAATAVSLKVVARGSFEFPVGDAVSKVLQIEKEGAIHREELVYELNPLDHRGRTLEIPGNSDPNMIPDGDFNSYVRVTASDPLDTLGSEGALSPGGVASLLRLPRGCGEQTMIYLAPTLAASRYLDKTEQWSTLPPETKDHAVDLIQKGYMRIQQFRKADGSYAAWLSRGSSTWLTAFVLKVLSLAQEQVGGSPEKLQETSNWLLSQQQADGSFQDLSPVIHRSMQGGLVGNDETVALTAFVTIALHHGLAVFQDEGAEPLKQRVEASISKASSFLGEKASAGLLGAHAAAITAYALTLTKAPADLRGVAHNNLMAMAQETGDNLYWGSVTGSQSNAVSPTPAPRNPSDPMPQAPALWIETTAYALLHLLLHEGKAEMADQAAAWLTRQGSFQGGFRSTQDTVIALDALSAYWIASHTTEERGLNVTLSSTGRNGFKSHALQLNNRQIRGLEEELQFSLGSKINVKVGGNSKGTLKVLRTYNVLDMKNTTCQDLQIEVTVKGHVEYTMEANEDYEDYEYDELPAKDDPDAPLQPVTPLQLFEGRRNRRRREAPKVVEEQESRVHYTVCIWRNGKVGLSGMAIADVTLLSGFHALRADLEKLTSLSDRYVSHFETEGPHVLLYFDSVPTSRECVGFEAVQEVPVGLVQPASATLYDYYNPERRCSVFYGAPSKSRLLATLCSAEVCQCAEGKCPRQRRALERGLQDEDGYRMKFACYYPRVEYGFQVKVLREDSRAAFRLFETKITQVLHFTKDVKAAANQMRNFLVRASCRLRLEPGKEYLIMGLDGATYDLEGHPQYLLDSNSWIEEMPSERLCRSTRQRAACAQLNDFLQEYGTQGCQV

C4c EC50 | Binder
412 nM | Const. No. 94: hCFI-PD (wild type plasma-derived human CFI), P05156 19-583 (enzyme) KVTYTSQEDLVEKKCLAKKYTHLSCDKVFCQPWQRCIEGTCVCKLPYQCPKNGTAVCATNRRSFPTYCQQKSLECLHPGTKFLNNGTCTAEGKFSVSLKHGNTDSEGIVEVKLVDQDKTMFICKSSWSMREANVACLDLGFQQGADTQRRFKLSDLSINSTECLHVHCRGLETSLAECTFTKRRTMGYQDFADVVCYTQKADSPMDDFFQCVNGKYISQMKACDGINDCGDQSDELCCKACQGKGFHCKSGVCIPSQYQCNGEVDCITGEDEVGCAGFASVTQEETEILTADMDAERRRIKSLLPKLSCGVKNRMHIRRKRIVGGKRAQLGDLPWQVAIKDASGITCGGIYIGGCWILTAAHCLRASKTHRYQIWTTVVDWIHPDLKRIVIEYVDRIIFHENYNAGTYQNDIALIEMKKDGNKKDCELPRSIPACVPWSPYLFQPNDTCIVSGWGREKDNERVFSLQWGEVKLISNCSKFYGNRFYEKEMECAGTYDGSIDACKGDSGGPLVCMDANNVTYVWGVVSWGENCGKPEFPGVYTKVANYFDWISYHVGRPFISQYNV
340 nM | Const. No. 96: hCFI (wt hCFI, no signal sequence, no HSA), P05156 19-583 (enzyme) KVTYTSQEDLVEKKCLAKKYTHLSCDKVFCQPWQRCIEGTCVCKLPYQCPKNGTAVCATNRRSFPTYCQQKSLECLHPGTKFLNNGTCTAEGKFSVSLKHGNTDSEGIVEVKLVDQDKTMFICKSSWSMREANVACLDLGFQQGADTQRRFKLSDLSINSTECLHVHCRGLETSLAECTFTKRRTMGYQDFADVVCYTQKADSPMDDFFQCVNGKYISQMKACDGINDCGDQSDELCCKACQGKGFHCKSGVCIPSQYQCNGEVDCITGEDEVGCAGFASVTQEETEILTADMDAERRRIKSLLPKLSCGVKNRMHIRRKRIVGGKRAQLGDLPWQVAIKDASGITCGGIYIGGCWILTAAHCLRASKTHRYQIWTTVVDWIHPDLKRIVIEYVDRIIFHENYNAGTYQNDIALIEMKKDGNKKDCELPRSIPACVPWSPYLFQPNDTCIVSGWGREKDNERVFSLQWGEVKLISNCSKFYGNRFYEKEMECAGTYDGSIDACKGDSGGPLVCMDANNVTYVWGVVSWGENCGKPEFPGVYTKVANYFDWISYHVGRPFISQYNV
